From patent US20230357438A1 (BIOSION, published 2023) come the findings set out here.

Experiment [1] concerns the target T1, cynomolgus monkey C5-his protein (Acro biosystems, Cat#CO5-C52Hx) (cynomolgus monkey, UniProt A0A2K5U1T1 19-1676).
T1 construct: Bought protein; also called Cynomolgus C5-his; cynomolgus C5; not shown: his tag
Nature of the experiment: indirect ELISA on coated cynomolgus C5-his (1 ug/ml), anti-human IgG Fc-HRP. A general note: An ELISA detects its analyte on a solid surface through an enzyme-linked reagent.

Experiment [2] has as its target T2, recombinant human C5-his protein (Sino Biological Inc., Cat#13416-H18H) (human, UniProt P01031 19-1676).
T2 construct: Bought protein; also called wild type human C5; not shown: his tag
The experiment in a line: capture ELISA: antibody captured on goat anti-human IgG Fc, biotin-labeled human C5-his 0.99 nM, streptavidin-HRP.

In experiment [3] the target is T3, mutant human C5 (R885H)-his protein (Acro biosystems, Cat#CO5-H52Hx) (human, UniProt P01031 19-1676).
T3 construct: Bought protein; also called human C5 mutant; not shown: his tag
The experiment in a line: SPR (Biacore T200), antibody captured by anti-human IgG, C5 in flow, 1:1 fit. (In general: Surface plasmon resonance follows binding to a sensor surface in real time, without labels.)

Experiment [4] concerns the target T2, recombinant human C5-his protein (Sino …). Nature of the experiment: competitive ELISA: antibody pre-mixed with biotin-labeled human C5-his 0.99 nM, added to coated Eculizumab; partial inhibition only, value below the range tested.
The target in experiment [5] is T1, cynomolgus monkey C5-his protein (Acro …). Nature of the experiment: SPR (Biacore T200), antibody captured by anti-human IgG, C5 in flow, 1:1 fit.
Experiment [6] concerns the target T2, recombinant human C5-his protein (Sino …). Described as above.
Experiment [7] concerns the target T3, mutant human C5 (R885H)-his protein …. Nature of the experiment: indirect ELISA on coated human C5 (R885H)-his (2 ug/ml), anti-human IgG Fc-HRP.
Experiment [8] addresses T1, cynomolgus monkey C5-his protein (Acro …). The experiment in a line: indirect ELISA on coated cynomolgus C5-his (1 ug/ml), anti-human IgG Fc-HRP. This is another data set of the same source.
In experiment [9] the target is T2, recombinant human C5-his protein (Sino …). Nature of the experiment: capture ELISA: antibody captured on goat anti-human IgG Fc, biotin-labeled human C5-his 0.99 nM, streptavidin-HRP. The source holds these as a separate data set.
The target of experiment [10] is T3, mutant human C5 (R885H)-his protein …. Nature of the experiment: indirect ELISA on coated human C5 (R885H)-his (2 ug/ml), anti-human IgG Fc-HRP. This is another data set of the same source.
The target of experiment [11] is T2, recombinant human C5-his protein (Sino …). Nature of the experiment: competitive ELISA: antibody pre-mixed with biotin-labeled human C5-his 0.99 nM, added to coated Eculizumab; partial inhibition only.

Like-named read-outs stand apart in the source and are kept apart here.

B1: A2E12G12H7 (antibody, V domains shown)
VH: QVQLVQSGAEVKKPGASVKVSCKASGYTFTGYYIHWVRQAPGQGLEWMGWINPNSGSTNSAQKFQDWVTLTRDTSISTAYMELSRLKSDDTAVYYCARRADYYGSGNFYYFDYWGQGTLVTVSS
VL: DIQMTQSPSSVSASVGDRVTISCRASQSISRWLAWYQQKPGKAPKLLIYAATSLQSGVPSRFSGSGFVRDFTLTISSLQPEDFATYYCQQANTFPLIFGGGTKVEIK
notes: Fully human antibody purified from hybridoma; not added here
As a reminder, the EC50 is the concentration that produces a half-maximal response. A word on the Kd: it is the constant that tells how readily two partners part at equilibrium. For orientation: koff means a measure of how fast the partners let go of each other. For orientation: kon means a measure of how fast the partners come together. As usually defined, the IC50 is the concentration at which inhibition is half-maximal. In the case of B1, the values for the EC50 in experiment [1], in experiment [2] and in experiment [7] were 0.127 nM, 0.0418 nM and 0.0684 nM, respectively. Moreover, the Kd came out at 1.32 nM in experiment [3], 0.741 nM in [5] and 1.6 nM in [6]. In addition, the koff was 0.000408 s⁻¹ in [3], 0.000267 s⁻¹ in experiment [5] and 0.000186 s⁻¹ in experiment [6]. In addition, the kon in experiment [3] is 308000 M⁻¹ s⁻¹; in experiment [5], 360000 M⁻¹ s⁻¹; in experiment [6], 117000 M⁻¹ s⁻¹. Further, the IC50 in experiment [4] was approximately 0.00153 nM.

B2: A5G9C2C7 (antibody, V domains shown)
VH: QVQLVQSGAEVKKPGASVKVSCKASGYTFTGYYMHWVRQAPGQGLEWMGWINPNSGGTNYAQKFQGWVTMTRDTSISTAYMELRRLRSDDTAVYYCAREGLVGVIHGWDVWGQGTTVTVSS
VL: DIQMTQSPSTLSASVGDRVTITCRASQNIYNWLAWYQQKPGKAPKLLIYKASSLESGVPSRFSGSGSGTEFTLTISSLQPDDFATYYCQQYNSNSRTFGQGTKVEIK
notes: as for B1
Consider B2, for which the EC50 in experiment [8] was determined as 0.128 nM; in experiment [9], 0.0277 nM; in experiment [10], 0.0853 nM. In addition, the results for the Kd in experiment [3], in experiment [5] and in experiment [6] were 0.303 nM, 1.58 nM and 0.262 nM, respectively. For the same molecule, the results for the dissociation rate constant (koff) in experiment [3], in [5] and in experiment [6] were 0.000153 s⁻¹, 0.000293 s⁻¹ and 3.47e-05 s⁻¹, respectively. Moreover, the kon turned out to be 505000 M⁻¹ s⁻¹ in [3], 185000 M⁻¹ s⁻¹ in experiment [5] and 133000 M⁻¹ s⁻¹ in experiment [6]. Further, the IC50 in [11] is approximately 0.256 nM.
